“Also recorded” adds a separate entry of the source. Non-standard residues stand in square brackets, D forms with d. No end group written: not given here. *: point of attachment. β‑Lac = OC[C@H]1O[C@@H](O[C@H]2[C@H](O)[C@@H](O)[C@H](*)O[C@@H]2CO)[C@H](O)[C@@H](O)[C@H]1O; Dmt = Cc1cc(O)cc(C)c1C[C@H](N)C(=O)O
Columns and labels:
MOPr [1] = target: T1, MOPr (Mus musculus, UniProt P42866); experiment: GIRK conductance in MOPr expressing AtT20 cells without fractional inactivation of MOPr; type: cell-based; set-up: expressed in transfected cells
Description: The recording electrodes were first front filled with this internal solution and then backfilled with the same solution containing 200 μg/ml amphotericin B (in 0.8% DMSO). […] Liquid junction potential was calculated to be +16 mV and was adjusted before the start of each recording. […] Currents were sampled at 100 Hz, low pass filtered at 50 Hz and recorded on hard disk for later analyses. IGIRK was recorded using a 200 ms voltage step to −120 mV from a holding potential of −60 mV delivered every 2 s. Drugs were perfused directly onto cells using a ValveLink 8.2 pressurized pinch valve perfusion system (AutoMate Scientific, USA).

MOPr [2] = target: T1, MOPr; type: cell-based; set-up: expressed in transfected cells; conditions: for internalisation signal in GRK2 positive cells: GRK2-YFP and β-arrestin 2-HA overexpressed
Description: Endocytosis assay: Receptor internalization was quantified using a ratiometric staining of membrane and internalized receptors. […] Cells were then incubated for an additional 30 min with indicated agonist at 37° C. To unbind the M1 anti-FLAG antibody from the surface receptors, cells were quickly washed three times with ice-cold PBS lacking Mg^2+ and Ca^2+ and supplemented with 0.04% EDTA (pH 7.4).
Only YFP positive cells were analyzed for internalization.
See also FIGS. 11C and 11D.

C57BL/6 mice = experiment: Nociception (analgesia) testing on 54 C hotplate; type: in vivo, mouse; conditions: for analgesic activity after systemic administration: 54° C. hotplate
Description: Experiments were performed under the guidelines of the Australian code of practice for the care and use of animals for scientific purposes (National Health and Medical Research Council, Australia, 7th Edition). Great care was taken to minimise animal suffering during these experiments and to reduce the number of animals used. […] Food and water was available ad libitum. Mice were given at least 7 days to habituate to housing facilities prior to handling, and handled by the experimenter for 4 days prior to testing. […] The experimenter was blind to all drugs tested. Animals were tested on a 54° C. hotplate, with a maximum cut-off time of 20 seconds to prevent tissue damage. Endpoints were hindpaw lick, hindpaw flutter or jump. […] The percentage of maximal possible effects (% MPE) were calculated as follows: % MPE=(test latency−baseline latency)/(cutoff latency−baseline latency)×100%. The cut-off latency was 20 seconds. Significant differences were assessed with a two-way ANOVA and Tukey's post hoc multiple comparisons test. […] Doses were transformed to the logarithm of μmol/kg. A two-way ANOVA was used to compare data at equimolar doses.

MOPr [3] = target: T1, MOPr; type: cell-based; set-up: expressed in transfected cells; host or cells: AtT20 cells, transient co-transfection
Description: Arrestin recruitment: Agonist-induced recruitment of β-arrestin2 to MOPr was examined using a BRET-based approach. AtT20 cells were plated in 10-cm dishes and co-transfected with MOPr C-terminally tagged with Rluc8 (MOPr-RLuc8), β-arrestin2-YFP and GRK2 (1 μg, 4 μg and 2 μg, respectively). 24 h after transfection wells were replated into white opaque 96-well plates (CulturPlate, PerkinElmer) and allowed to adhere overnight. Cells were washed with Hank's Balanced Salt Solution (HBSS) and equilibrated in HBSS for 30 min at 37° C. prior to the experiment. Coelenterazine h was added to a final concentration of 5 μM 10 min before dual fluorescence/luminescence measurement in a LUMIstar Omega plate reader (BMG LabTech). Baseline BRET was measured for 30 sec prior to addition of the indicated ligand. The BRET signal was calculated as the ratio of light emitted at 530 nm by YFP over the light emitted at 430 nm by Renilla luciferase 8 (RLuc8).

MOPr [4] = target: T2, MOPr (Rattus norvegicus, UniProt P33535); experiment: Patch-clamp recordings of GIRK currents in rat locus coeruleus (LC) neurons; type: cell-based
T2 construct: which natively express MOPr but not DOPr or KOPr; from tissue; host or cells: brain slices with locus coeruleus neurons, male Sprague Dawley rats
Description: Briefly, rats were anesthetized with isoflurane and decapitated. The brain was dissected and mounted in a vibratome chamber (Leica biosystem, VT100, Wetzlar, Germany) in order to prepare horizontal brain slices (280 μm). […] Slices were incubated in warm oxygenated ACSF for at least 30 min before recording. Slices were transferred to the recording chamber while warm ACSF (34° C.) was superfused at a rate of ˜2 mL/min. Whole-cell voltage-clamp recordings were acquired from LC neurons with Multiclamp 700B amplifier (Molecular Devices, CA, USA) at holding potential of −60 mV. […] Continuous current recordings were collected in chart mode at 500 Hz and filtered at 20-50 Hz using Axograph X (Axograph Scientific, Sydney, Australia). Series resistance monitored throughout the experiments and remained <15 MΩ; otherwise the data were discarded. Outward current was measured as the difference between baseline current and peak current of drug application.

mouse MOPr (mMOPr) = target: T3, mouse MOPr (mMOPr) (Mus musculus, UniProt P42866); type: cell-based
T3 construct: expressed in transfected cells

MOPr [5] = target: T1, MOPr; experiment: MOPr internalisation (endocytosis assay) in AtT20 cells; type: cell-based; set-up: expressed in transfected cells; conditions: 30 min agonist; met-enkephalin defined as 100%
Description: Imaging parameters including laser intensity, photomultiplier tube (PMT) voltage and offset remained constant for each experiment. Mean fluorescence intensity was measured using ImageJ software to calculate mean gray value of an area defined […] a single cell. Each experiment was normalized to the mean of untreated cells as 0% and the mean of cells treated with saturating concentrations of Met-enk (30 μM) as 100%.
MOPr internalisation was assessed immunocytochemically after 30 minutes of agonist treatment (FIGS. 8, 9). […] Endocytosis assay: Receptor internalization was quantified using a ratiometric staining of membrane and internalized receptors. […] Cells were then incubated for an additional 30 min with indicated agonist at 37° C. To unbind the M1 anti-FLAG antibody from the surface receptors, cells were quickly washed three times with ice-cold PBS lacking Mg^2+ and Ca^2+ and supplemented with 0.04% EDTA (pH 7.4).

[6] = target: human µ-opioid receptor (hMOPr), human recombinant MOPr expressed in HEK-293 cells (human) (UniProt P35372); experiment: cell-based or functional assay
[7] = target: MOPr C-terminally tagged with Rluc8 (MOPr-RLuc8), transfected in AtT20 cells; experiment: cell-based or functional assay
[8] = target: FLAG tagged mouse MOPr (mMOPr) stably expressed in AtT20 cells (mouse) (UniProt P42866); experiment: cell-based or functional assay
[9] = target: MOPr natively expressed by rat locus coeruleus (LC) neurons (rat, UniProt P33535 1-398); experiment: cell-based or functional assay
[10] = target: T4, human µ-opioid receptor (hMOPr), human recombinant MOPr expressed in HEK-293 cells (human, UniProt P35372 1-400); experiment: competition with [3H]DAMGO (0.5 nM), membranes with human recombinant MOPr (HEK-293), filtration and scintillation counting
T4 construct: whole, on cells; the cAMP assay used whole HEK cells expressing hMOPr
Description: (§1) The specific ligand binding to the receptors is defined as the difference between the total binding and the nonspecific binding determined in the presence of an excess of an unlabelled opioid ligand (naloxone, 10 μM). The results are expressed as a percent of control specific binding ((measured specific binding/control specific binding)×100) obtained in the presence of unlabelled peptides of interest. The IC₅₀ values (concentration causing a half-maximal inhibition of control specific binding) and Hill coefficients (nH) were determined by non-linear regression analysis of the competition curves generated with mean replicate values using Hill equation curve fitting (Y=D+[(A−D)/(1+(C/C₅₀nH)], where Y=specific binding, D=minimum specific binding, A=maximum specific binding, C=compound concentration, C₅₀=IC₅₀, and nH=slope factor).

[11] = target: T4, human µ-opioid receptor (hMOPr), human …; experiment: cell-based or functional assay
[12] = target: T4, human µ-opioid receptor (hMOPr), human …; experiment: competition with [3H]DAMGO at hMOPr
Description: as §1

T1 sequence (P42866 whole entry): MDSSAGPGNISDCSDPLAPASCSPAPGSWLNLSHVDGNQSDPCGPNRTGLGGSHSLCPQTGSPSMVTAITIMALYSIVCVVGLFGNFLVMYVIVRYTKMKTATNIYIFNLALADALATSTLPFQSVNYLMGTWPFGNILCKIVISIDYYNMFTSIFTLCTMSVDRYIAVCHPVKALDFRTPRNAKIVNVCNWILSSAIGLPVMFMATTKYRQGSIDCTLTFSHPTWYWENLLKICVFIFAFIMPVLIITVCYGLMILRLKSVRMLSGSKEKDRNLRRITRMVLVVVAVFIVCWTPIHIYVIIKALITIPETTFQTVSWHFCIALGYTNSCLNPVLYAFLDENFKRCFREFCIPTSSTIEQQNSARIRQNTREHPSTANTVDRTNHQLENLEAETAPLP
T3 sequence (P42866 whole entry): as above
Sequence of FLAG tagged mouse MOPr (mMOPr) stably expressed in AtT20 cells (mouse) (P42866 whole entry): as above
T4 sequence (P35372 whole entry): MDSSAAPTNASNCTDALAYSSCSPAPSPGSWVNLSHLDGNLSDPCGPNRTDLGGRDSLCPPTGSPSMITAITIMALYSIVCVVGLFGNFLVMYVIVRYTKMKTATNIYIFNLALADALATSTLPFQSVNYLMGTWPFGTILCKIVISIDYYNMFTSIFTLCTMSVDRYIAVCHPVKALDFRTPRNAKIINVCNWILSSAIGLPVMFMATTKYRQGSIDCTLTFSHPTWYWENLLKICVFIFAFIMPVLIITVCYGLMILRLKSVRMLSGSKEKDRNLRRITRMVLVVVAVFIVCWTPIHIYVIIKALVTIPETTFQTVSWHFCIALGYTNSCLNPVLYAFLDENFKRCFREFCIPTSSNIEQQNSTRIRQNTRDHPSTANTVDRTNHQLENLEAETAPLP
Sequence of MOPr natively expressed by rat locus coeruleus (LC) neurons (P33535 whole entry): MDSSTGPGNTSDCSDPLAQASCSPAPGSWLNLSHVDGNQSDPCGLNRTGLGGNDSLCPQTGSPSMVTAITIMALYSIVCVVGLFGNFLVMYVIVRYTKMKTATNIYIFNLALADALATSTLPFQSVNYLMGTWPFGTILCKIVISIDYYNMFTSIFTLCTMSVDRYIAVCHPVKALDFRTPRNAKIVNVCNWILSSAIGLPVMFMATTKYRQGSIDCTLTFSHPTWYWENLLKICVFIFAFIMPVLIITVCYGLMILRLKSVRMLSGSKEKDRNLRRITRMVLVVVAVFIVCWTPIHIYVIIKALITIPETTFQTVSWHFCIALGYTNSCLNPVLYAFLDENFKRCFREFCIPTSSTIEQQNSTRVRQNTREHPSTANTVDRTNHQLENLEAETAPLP
Sequence of human µ-opioid receptor (hMOPr), human recombinant MOPr expressed in HEK-293 cells (human) (P35372 whole entry): as the sequence (P35372 whole entry) above
T2 sequence (P33535 whole entry): as the sequence (P33535 whole entry) above

Molecule: 2,6-dimethyl-L-tyrosine-D-Val-L-Val-D-Phe-L-Ser(β-Lac)-NH2 ([Dmt][dV]V[dF]S(β‑Lac)-NH2; N-terminus assumed; SMILES Cc1cc(O)cc(C)c1C[C@H](N)C(=O)N[C@@H](C(=O)N[C@H](C(=O)N[C@H](Cc1ccccc1)C(=O)N[C@@H](CO[C@@H]1O[C@H](CO)[C@@H](O[C@@H]2O[C@H](CO)[C@H](O)[C@H](O)[C@H]2O)[C@H](O)[C@H]1O)C(N)=O)C(C)C)C(C)C) [peptide 3g]
- agonist action in AtT20 cells (MOPr [1]): potent partial opioid agonist
- potency compared with bilorphin in AtT20 cells (MOPr [1]): small loss of potency
- internalization compared to bilorphin (MOPr [2]; 30 μM, after GRK2 overexpression): modest
- analgesic activity after systemic administration (C57BL/6 mice; s.c., listed as Bilactorphin): dose-dependent analgesia; also recorded: equipotent with morphine
- analgesic activity after systemic administration (C57BL/6 mice; s.c., listed as bilactorphin): potent analgesic
- peak effect after i.v (C57BL/6 mice; hotplate, i.v): 88.9±11.8 % MPE
- activity after oral administration (C57BL/6 mice; hotplate, oral gavage): active
- ED50, hotplate, systemic administration s.c. (C57BL/6 mice; s.c.): 34 µmol/kg
- β-arrestin recruitment compared to bilorphin (MOPr [3]): modest

Molecule: CC(=O)N[C@@H](Cc1ccc(O)cc1)C(=O)N[C@@H](C(=O)N[C@H](C(=O)N[C@H](Cc1ccccc1)C(N)=O)C(C)C)C(C)C [3d, Aε-YvVf-NH2]
- activity in LC neurons (MOPr [4]; 10-30 μM): inactive

Molecule: COc1ccsc1CNCC[C@@]1(c2ccccn2)CCOC2(CCCC2)C1 [oliceridine]
- GGIRK maximal response / intrinsic efficacy (mouse MOPr (mMOPr)): significantly less efficaciously than either morphine or bilorphin
- GIRK (80% knockdown) Emax (mouse MOPr (mMOPr); AtT20 mMOPr cells after β-CNA, relative to somatostatin): 0.33 ± 0.01
- GIRK (80% knockdown) log(tau/KA) (mouse MOPr (mMOPr); operational model fit): 7.2 ± 0.08
- Internalisation Emax (MOPr [5]): No activity
- internalisation signal in GRK2 positive cells (MOPr [2]): clear internalisation signals

Molecule: Cc1cc(O)cc(C)c1C[C@H](N)C(=O)N[C@@H](C(=O)N[C@H](C(=O)N[C@H](Cc1ccccc1)C(N)=O)C(C)C)C(C)C [peptide 3c, 2,6-dimethyl-L-tyrosine-D-Val-L-Val-D-Phe-NH2]
- agonist action on GIRK current in LC neurons (MOPr [4]; compared with morphine): agonist with potency greater than morphine
- agonist action in AtT20 cells (MOPr [1]): potent partial opioid agonist
- internalisation signal in GRK2 positive cells (MOPr [2]): clear internalisation signals
- peak effect after intrathecal injection (C57BL/6 mice; hotplate, 5 nmol/mouse intrathecal): 41±9 % MPE
- nociception in the hotplate test, intravenous (C57BL/6 mice; i.v. 50 mg/kg, versus vehicle): failed to inhibit nociception
- nociception in the hotplate test, subcutaneous (C57BL/6 mice; s.c. 100 mg/kg, versus vehicle): failed to inhibit nociception

Molecule: DAMGO ([D-Ala^2, N-MePhe^4, Gly^5-ol]-enkephalin) (peptide)
- % inhibition of forskolin-stimulate cAMP formation in hMOPr HEK cells (10 um) [6]: 94%

Molecule: H-FVVF-NH2 (peptide)
- % inhibition of forskolin-stimulate cAMP formation in hMOPr HEK cells (10 um) [6]: 19%

Molecule: endomorphin-2 (peptide)
- β-arrestin 2 recruitment (BRET): Emax [7]: 100
- β-arrestin 2 recruitment (BRET): log(EC50) [7]: -7
- β-arrestin 2 recruitment (BRET): log(tau/KA) [7]: 7
- GIRK (80% knockdown): Emax [8]: 0.64
- GIRK (80% knockdown): log(EC50) [8]: -6.9
- GIRK (80% knockdown): log(tau/KA) [8]: 7.5
- Internalisation of MOPr: Emax [8]: 94%
- Internalisation of MOPr: log(EC50) [8]: -6.4
- Internalisation of MOPr: log(tau/KA) [8]: 6.2
- Phosphorylation (Ser375 of MOPr): Emax [8]: 98%
- Phosphorylation (Ser375 of MOPr): log(EC50) [8]: -7.2
- Phosphorylation (Ser375 of MOPr): log(tau/KA) [8]: 7.2

Molecule: H-YVVF-NH2 [H-YVVF-NH2]
- Agonist potency in LC neurons EC50 [9]: > 10000 nM

B1: H-FvGy-NH2 (L-Phe-D-Val-Gly-D-Tyr-NH2) (peptide)
peptide: H-F[dV]G[dY]-NH2
SMILES: CC(C)[C@@H](NC(=O)[C@@H](N)Cc1ccccc1)C(=O)NCC(=O)N[C@H](Cc1ccc(O)cc1)C(N)=O
notes: also called 2d; peptide 2d
- Ki [10]: 1600 nM
- % inhibition of forskolin-stimulate cAMP formation in hMOPr HEK cells (10 um) [11]: 31%

Molecule: FVVF (D-Val at 2; D-Phe at 4; C-terminal amide, also called 1e; peptide 1e) [H-FvVf-NH2 (L-Phe-D-Val-L-Val-D-Phe-NH2)]
- Ki [10]: 750 nM
- fold improvement of affinity over Bilaid A (1a) [12]: 4 fold
- % inhibition of forskolin-stimulate cAMP formation in hMOPr HEK cells (10 um) [11]: 47%

Molecule: H-YVVF-OH [H-YVVF-OH]
- Agonist potency in LC neurons EC50 [9]: > 10000 nM

Molecule: YVVF (D-Val at 2; D-Phe at 4; C-terminal amide, also called 3b; peptide 3b) [H-YvVf-NH2 (L-Tyr-D-Val-L-Val-D-Phe-NH2)]
- Ki [10]: 93 nM
- fold increase of affinity over Bilaid C (3a) [12]: 2 fold

Molecule: Ac-Y[dV]V[dF]-NH2 [Ac-YvVf-NH2]
- Agonist potency in LC neurons EC50 [9]: > 10000 nM
